Patent publication US20190010458

Biological target: T1, HA-Etv2 (Mus musculus) (UniProt P41163)
T1 sequence: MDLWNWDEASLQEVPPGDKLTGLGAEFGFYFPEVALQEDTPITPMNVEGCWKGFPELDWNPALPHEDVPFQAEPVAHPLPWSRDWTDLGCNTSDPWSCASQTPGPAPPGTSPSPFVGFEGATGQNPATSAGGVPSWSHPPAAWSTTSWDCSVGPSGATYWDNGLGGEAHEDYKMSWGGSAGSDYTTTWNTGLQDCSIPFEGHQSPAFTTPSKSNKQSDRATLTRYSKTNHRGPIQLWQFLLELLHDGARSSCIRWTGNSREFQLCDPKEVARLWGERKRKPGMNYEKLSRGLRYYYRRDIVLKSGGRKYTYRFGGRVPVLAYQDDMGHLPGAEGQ
Details: ChIP-qPCR with anti-HA, Dox-induced EBs

Substance: miR-130a upstream promoter region (ChIP amplicon)
- binding signal (fold enrichment): 15
